Here are results for one molecule from PMC2891831, “Insight into the Mechanisms of Adenovirus Capsid Disassembly from Studies of Defensin Neutralization” (PLoS Pathogens, 2010).

“Also recorded” adds a separate entry of the source.

For one experiment, the system named is HAdV species B2. Kind of experiment: Infection assay (hexon staining), HAdV species B2. Format: cell-based, human adenovirus. The note with it: 15 µM HD5, A549 cells, hexon staining at ~48 h, vs. no defensin. As to the method: (§1) To determine whether sensitivity to α-defensins is a general property of HAdVs, serotypes representative of HAdV species A–F were tested for infectivity in the presence of 15 µM HD5 or HNP1 (Figure 1). Wild type HAdVs rather than vectors were used for these studies, and infectivity was assessed by staining for hexon production. […] These studies indicate that sensitivity to α-defensins is species specific. In addition, particular HAdV serotypes are not equally sensitive to all defensins, indicating defensin sequence specificity as well.
(§2) Figure 1 Sensitivity to neutralization by alpha-defensins is AdV species specific. HAdVs were incubated with 15 µM HD5 (A) or HNP1 (B) and assessed for infectivity on A549 cells. Data are the mean of the percent infectivity compared to control cells infected with each virus in the absence of defensin for at least three independent experiments ± SD. The upper limit for quantification of this assay is 200%. […]
(§3) Prior to use in this assay, each virus stock was titrated on A549 cells. […] In parallel, wells were infected with two-fold serial dilutions of each virus to establish a standard curve for quantification with an upper limit of 200%. […] Total well fluorescence above background was quantified with ImageJ software. For each virus, samples were quantified by nonlinear regression against the standard curve using Prism software (GraphPad Software, Inc., La Jolla, CA).

In a further experiment the test system is HAdV-4 (species E). Kind of experiment: Infection assay (hexon staining), HAdV-4. Format: cell-based, human adenovirus. As to conditions: 15 µM HD5 or HNP1, A549 cells, hexon staining at ~48 h, vs. no defensin. As to the method: as §1, §2, §3
Experiment [1] concerns Ad5.F35 capsid (hexon, penton base, fiber). Kind of experiment: CryoEM difference map analysis of Ad5.F35+HD5. Format: binding, human adenovirus. As to conditions: 20 µM HD5, 160 µg/ml Ad5.F35, cryoEM difference map, 12 Å resolution. The procedure:
To obtain structural insight into the mechanism of α-defensin-mediated neutralization of HAdV infection, we studied a complex of Ad5.F35 (Ad35F) and HD5 by cryoelectron microscopy (cryoEM). This chimeric virus construct was chosen because of its short fiber and the availability of a cryoEM structure of Ad5.F35 in the absence of defensin for comparison, [31]. […] Ad5.F35 was incubated with a saturating concentration of HD5 (20 µM) then applied to grids and flash frozen for cryoEM. A dataset of 2,611 cryoEM particle images of the Ad5.F35+HD5 complex was collected and processed as performed earlier for Ad5.F35 [31]. The resolution of the icosahedral portion of the Ad5.F35+HD5 reconstruction is estimated as 12 Å by the FSC 0.5 threshold criterion, compared to 6.9 Å for the Ad5.F35 reconstruction. Both cryoEM structures are shown filtered to 12 Å resolution in Figure 4A. The most noticeable difference between the two structures is the presence of more density on top of penton base and around the fiber shaft in the Ad5.F35+HD5 structure. In addition, while the fiber knob is visible in the Ad5.F35 structure, it is only weakly reconstructed in the Ad5.F35+HD5 structure (Figure 4A inset). […]

A further experiment relates to HAdV-19c. Kind of experiment: Infection assay, HAdV-19c. Format: cell-based, human adenovirus. As to the method:
Figure 6 Neutralization determinants are located in fiber and penton base. A) Schematic of chimeric viruses. Capsid proteins are depicted in the order in which they are encoded in the virus genome for HAdV-5 (white) and HAdV-19c (grey). The variable residues in fiber (GYAR and DTET) are indicated for each construct. B) Each of the chimeric viruses was incubated with 5 µM (grey) or 10 µM (black) HD5 and assessed for infectivity on A549 cells. Data are the mean of the percent infectivity compared to control cells infected with each virus in the absence of defensin for at least three independent experiments ± SD. The upper limit for quantification of this assay is 200%.
We then combined the GYAR substitution with the PB substitution in a single construct (PB/GYAR).
Prior to use in this assay, each virus stock was titrated on A549 cells. A virus concentration was chosen to produce 50–70% maximal signal in the absence of defensin as described below. […] In parallel, wells were infected with two-fold serial dilutions of each virus to establish a standard curve for quantification with an upper limit of 200%. […] Total well fluorescence above background was quantified with ImageJ software. For each virus, samples were quantified by nonlinear regression against the standard curve using Prism software (GraphPad Software, Inc., La Jolla, CA).

B1: HD5: human alpha-defensin; synthetic, obtained from Peptides International; three disulfide bonds (PDB 1ZMP) (peptide, UniProt Q01523 20-94, looked up)
Defensin alpha 5: ESLQERADEATTQKQSGEDNQDLAISFAGNGLSALRTSGSQARATCYCRTGRCATRESLSGVCEISGRLYRLCCR
modifications: Defensin-5
With B1, the “sensitivity to neutralization (infectivity)” value in the experiment with HAdV species B2 is recorded as “sensitive”; in the experiment with HAdV-4 (species E), “moderately sensitive”. Besides, in experiment [1], the “HD5 binding regions on capsid” value is “HD5 difference density is also found within the central depression of the hexon trimers; also recorded: multiple binding sites for HD5 on the penton complex (penton base and fiber); also recorded: interacts with the exposed surfaces of the three major capsid proteins: hexon, penton base, and fiber; also recorded: extensive binding of HD5 to the fiber”. Further, the “sensitivity to HD5 neutralization” value in the experiment on HAdV-19c (5 µM and 10 µM HD5, A549 cells) is reported as “completely resistant to neutralization”. For the same molecule, the “defensin-resistance at higher HD5 concentration” value in the experiment with HAdV-19c (20 µM HD5, data not shown) was “confirmed the defensin-resistance”.
